Test results: PMC9095961
pKd: −log10 of the molar value.

Biological target: fluorescently labelled recombinant HAUSP (UniProt Q93009)
Test: other fluorescence titration; BODIPY FL-labelled HAUSP titrated with unlabeled PE_PGRS38; 25°C, 30 mM Tris pH 7.4, 150 mM NaCl, 1 mM dithiothreitol; fitted with Grafit

UniProt Q93009, sequence (Q93009 whole entry): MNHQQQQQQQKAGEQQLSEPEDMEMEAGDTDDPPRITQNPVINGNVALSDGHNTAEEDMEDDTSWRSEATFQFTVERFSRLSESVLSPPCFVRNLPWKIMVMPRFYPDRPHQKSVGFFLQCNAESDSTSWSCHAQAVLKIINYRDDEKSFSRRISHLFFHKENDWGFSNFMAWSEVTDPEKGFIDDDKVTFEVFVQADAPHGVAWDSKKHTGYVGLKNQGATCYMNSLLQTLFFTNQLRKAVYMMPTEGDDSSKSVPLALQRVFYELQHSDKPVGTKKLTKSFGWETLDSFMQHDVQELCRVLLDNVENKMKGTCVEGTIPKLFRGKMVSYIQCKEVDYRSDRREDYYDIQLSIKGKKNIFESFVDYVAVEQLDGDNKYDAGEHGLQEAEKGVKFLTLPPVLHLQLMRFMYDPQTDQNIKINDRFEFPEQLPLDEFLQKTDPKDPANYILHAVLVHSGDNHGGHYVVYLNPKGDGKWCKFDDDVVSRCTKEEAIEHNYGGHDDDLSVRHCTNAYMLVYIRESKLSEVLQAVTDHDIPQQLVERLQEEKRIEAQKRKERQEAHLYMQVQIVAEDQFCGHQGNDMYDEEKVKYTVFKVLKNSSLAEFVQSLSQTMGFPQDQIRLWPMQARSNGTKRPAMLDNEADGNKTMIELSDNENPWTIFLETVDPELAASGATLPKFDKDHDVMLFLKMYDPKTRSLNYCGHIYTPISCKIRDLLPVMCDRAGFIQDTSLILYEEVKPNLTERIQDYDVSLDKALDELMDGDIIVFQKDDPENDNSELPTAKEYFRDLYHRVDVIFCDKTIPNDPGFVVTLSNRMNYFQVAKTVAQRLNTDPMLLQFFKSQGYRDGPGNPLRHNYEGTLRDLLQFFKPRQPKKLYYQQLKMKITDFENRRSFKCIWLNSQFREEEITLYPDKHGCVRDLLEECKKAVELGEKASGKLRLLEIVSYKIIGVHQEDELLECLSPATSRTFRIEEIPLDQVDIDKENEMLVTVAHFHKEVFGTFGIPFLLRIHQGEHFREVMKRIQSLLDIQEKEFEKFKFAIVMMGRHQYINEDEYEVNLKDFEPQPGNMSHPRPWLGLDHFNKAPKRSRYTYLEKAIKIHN

Substance: recombinant PE_PGRS38 (from UniProt L7N6A1 1-532) (natural protein)
- pKd: 6.84
